# In US20240043505A1 (UNIVERSITY OF PITTSBURGH OF THE COMMONWEALTH SYSTEM OF …, published 2024):
# Several values for one entry are separate records, joined by “and”; a condition that tells them apart may be missing. Equal entries are not always repeated.
# B1: Nb9 (VHH)
# VHH: HVQLVESGGGLVQTGGSLRLSCAFSGYTFSTFPTAWFRQAPGKEREFVAGIRWNGGSRDYTEYADFVKGRFTISRDNAKNMIYLQMISLKPEDTALYYCAASHGVVDGTSVNGYRYWGQGTQVTVSS
# B2: Nb16 (VHH)
# VHH: DVQLVESGGGLVQAGESLRLSCAASGDMFSSNAMAWYRQAPGKQRELVASITSGGNTNYADSVKGRFTISRDNAKNTVYLQMDSLKPEDTAVYYCNGVAYDYSWGRPRNFWGQGTQVTVSS
# B3: Nb17 (VHH)
# VHH: HVQLVESGGGLVQAGGSLRLSCAASGSIFSSNAMSWYRQAPGKQRELVASITSGGNADYADSVKGRFTISRDKNTVYPEMSSLKPADTAVYYCHAVGQEASAYAPRAYWGQGTQVTVSS
# B4: Nb89 (VHH)
# VHH: HVQLVESGGGLVQAGGSLRLSCAASGGTFTTFRMAWFRQTPGKEREFVAASSWGFVNYADPVKGRFTISRDNAKNTVYLEMSSLKTEDTAVYYCAARNPGTGQYDYWGQGTQVTVSS
# B5: Nb89 (VHH)
# VHH: HVQLVESGGGLVQAGGSLRLSCAASGGTFTTFRMAWFRQTPGKEREFVAASSWGFVNYADPVKGRFTISRDNAKNTVYLEMSSLKTEDTAVYYCAARNPGTGQYDYWGQGTQVTVSS
# B6: Nb89 (VHH)
# VHH: HVQLVESGGGLVQAGGSLRLSCAASGGTFTTFRMAWFRQTPGKEREFVAASSWGFVNYADPVKGRFTISRDNAKNTVYLEMSSLKTEDTAVYYCAARNPGTGQYDYWGQGTQVTVSS
# B7: Nb34 (VHH)
# VHH: DVQLVESGGGLVQAGGSLRLSCAASGFTFSNYVMYWGRQAPGKGREWVSGIDSDGSDTAYASSVKGRFTISRDNAKNTLYLQMNNLKPEDTALYYCVKSKDPYGSPWTRSEFDDYWGQGTQVTVSS
# B8: Nb34 (VHH)
# VHH: DVQLVESGGGLVQAGGSLRLSCAASGFTFSNYVMYWGRQAPGKGREWVSGIDSDGSDTAYASSVKGRFTISRDNAKNTLYLQMNNLKPEDTALYYCVKSKDPYGSPWTRSEFDDYWGQGTQVTVSS
# B9: Nb20 (VHH)
# VHH: QVQLVESGGGLVQAGGSLRLSCAVSGAGAHRVGWFRRAPGKEREFVAAIGASGGMTNYLDSVKGRFTISRDNAKNTIYLQMNSLKPQDTAVYYCAARDIETAEYIYWGQGTQVTVSS
# B10: Nb21 (VHH)
# VHH: QVQLVESGGGLVQAGGSLRLSCAVSGLGAHRVGWFRRAPGKEREFVAAIGANGGNTNYLDSVKGRFTISRDNAKNTIYLQMNSLKPQDTAVYYCAARDIETAEYTYWGQGTQVTVSS
# B11: Nb21 (VHH)
# VHH: QVQLVESGGGLVQAGGSLRLSCAVSGLGAHRVGWFRRAPGKEREFVAAIGANGGNTNYLDSVKGRFTISRDNAKNTIYLQMNSLKPQDTAVYYCAARDIETAEYTYWGQGTQVTVSS
# B12: Nb78 (VHH)
# VHH: QVQLVESGGGLVQAGGSLRLSCAISGASANRVGWFRRAPGKEREFVAAIGASGGMTNYLDSVKGRFTISRDNAKNTVYLQMNSLKPQDTAVYYCAARNIETAEYTYWGQGTQVTVSS
# B13: Nb11 (VHH)
# VHH: HVQLVESGGGLVQAGGSLRLSCAVSGASAERVGWFRRAPGKEREFVAAIGANGGSTNYLDSVKGRFTISRDNAKNTVYLQMNSLKPQDTAVYYCAARNLETFDYTYWGRGTQVTVSS
# B14: Nb95 (VHH)
# VHH: QVQLVESGGGLVQAGGSLRLSCAASGRTFSSYSMGWFRQAQGKEREFVATINGNGRDTYYTNSVKGRFTISRDDATNTVYLQMNSLKPEDTAIYYCAADKDVYYGYTSFPNEYEYWGQGTQVTVSS
# B15: Nb95 (VHH)
# VHH: QVQLVESGGGLVQAGGSLRLSCAASGRTFSSYSMGWFRQAQGKEREFVATINGNGRDTYYTNSVKGRFTISRDDATNTVYLQMNSLKPEDTAIYYCAADKDVYYGYTSFPNEYEYWGQGTQVTVSS
# B16: Nb105 (VHH)
# VHH: HVQLVESGGGLVQAGGSLRLSCAVSGRTFSTYGMAWFRQAPGKERDFVATITRSGETTLYADSVKGRFTISRDNAKNTVYLQMNSLKIEDTAVYYCAVRRDSSWGYSRDLFEYDYWGQGTQVTVSS
# B17: Nb105 (VHH)
# VHH: HVQLVESGGGLVQAGGSLRLSCAVSGRTFSTYGMAWFRQAPGKERDFVATITRSGETTLYADSVKGRFTISRDNAKNTVYLQMNSLKIEDTAVYYCAVRRDSSWGYSRDLFEYDYWGQGTQVTVSS
# Legend:
# [1] = target: SARS-CoV-2 spike glycoprotein (Wuhan-Hu-1 strain) on pseudotyped virus particles (SARS-CoV-2 (Wuhan-Hu-1 strain), UniProt P0DTC2 14-1273); experiment: cell-based or functional assay
# [2] = target: SARS-CoV-2 spike glycoprotein on authentic virus (Munich strain) (SARS-CoV-2 (Munich strain), UniProt P0DTC2 14-1273); experiment: cell-based or functional assay
# [3] = target: T1, SARS-CoV-2 spike receptor-binding domain (RBD) (SARS-CoV-2, UniProt P0DTC2 319-541); experiment: indirect ELISA, RBD coated on plate, 4PL fit
# [4] = target: SARS-CoV-2 spike glycoprotein on pseudotyped SARS-CoV-2 (Wuhan-Hu-1 strain) particles (SARS-CoV-2, UniProt P0DTC2 14-1273); experiment: cell-based or functional assay
# [5] = target: SARS-CoV-2 spike glycoprotein on authentic SARS-CoV-2 (Munich strain, SARS-CoV-2/München-1.1/2020/929) (SARS-CoV-2, UniProt P0DTC2 14-1273); experiment: cell-based or functional assay
# [6] = target: SARS-CoV-2 spike receptor-binding domain (RBD), recombinant (SARS-CoV-2, UniProt P0DTC2 319-541); experiment: SPR (Biacore 3000), RBD immobilized on the chip, Nb as analyte, 1:1 Langmuir fit
# [7] = target: T1, SARS-CoV-2 spike receptor-binding …; experiment: SPR (Biacore 3000), RBD immobilised, Nb as analyte, 1:1 Langmuir fit
# [8] = target: T2, SARS-CoV-2 (Wuhan-Hu-1 strain) spike glycoprotein on pseudotyped virus particles (SARS-CoV-2, UniProt P0DTC2 14-1273); experiment: cell-based or functional assay
# [9] = target: T2, SARS-CoV-2 (Wuhan-Hu-1 strain) spike …; experiment: cell-based or functional assay; remark: listed apart in the source
# [10] = target: T3, SARS-CoV-2 Munich strain spike glycoprotein on authentic virus (SARS-CoV-2); experiment: cell-based or functional assay
# [11] = target: T3, SARS-CoV-2 Munich strain spike …; experiment: cell-based or functional assay; remark: listed apart in the source
# SARS-CoV RBD = SARS-CoV RBD (SARS-CoV, UniProt P59594 306-527)
binder,measurement,setting,value
B1,Pseudo-neutralization IC50 (Luciferase),[1],1.5 nM
same,Authentic virus PRNT IC50,[2],1.72 nM
same,ELISA affinity,[3],0.89 nM
B2,Pseudo-neutralization IC50 (Luciferase),[1],1.57 nM
same,Authentic virus PRNT IC50,[2],3.16 nM
same,ELISA affinity,[3],0.37 nM
B3,Pseudo-neutralization IC50 (Luciferase),[1],1.1 nM
same,Authentic virus PRNT IC50,[2],1.5 nM
B4,Pseudo-neutralization (GFP),[4],< 0.5 nM
same,Pseudo-neutralization IC50 (Luciferase),[4],0.129 nM
same,Authentic virus PRNT IC50,[5],0.154 nM
same,Kd,[6],0.108 nM
same,koff,[6],0.000624 s⁻¹
B5,ELISA affinity,[3],1.09 nM
same,kon,[7],5.78e+06 M⁻¹ s⁻¹
B6,"IC50, pseudovirus assay",[8],2 ng/ml and 0.129 nM
same,Pseudo-neut IC50 Luciferase,[9],0.133 nM
same,Pseudo-neutralization (GFP),[9],< 0.5 nM
same,Authentic virus PRNT IC50,[10],0.154 nM
B7,Pseudo-neutralization IC50 (Luciferase),[1],2 nM
same,Authentic virus PRNT IC50,[2],1.12 nM
same,ELISA affinity,[3],0.47 nM
B8,neutralization of SARS-CoV-2 (assay not stated),[8],< 150 ng/mL
same,Pseudo-neut IC50 Luciferase,[9],1.99 nM
same,Authentic virus PRNT IC50,[10],1.12 nM
B9,Pseudo-neutralization (GFP),[1],< 0.5 nM
same,Pseudo-neutralization IC50 (Luciferase),[1],0.114 nM
same,Authentic virus PRNT IC50,[2],0.0422 nM
B10,"IC50, pseudovirus assay",[8],0.7 ng/ml and 0.045 nM
same,"IC50, SARS-CoV-2 PRNT",[11],0.021 nM
same,Pseudo-neut IC50 Luciferase,[9],0.0495 nM
same,Pseudo-neutralization (GFP),[9],< 0.5 nM
same,Authentic virus PRNT IC50,[10],0.022 nM
B11,Pseudo-neutralization (GFP),[1],< 0.5 nM
same,Pseudo-neutralization IC50 (Luciferase),[1],0.038 nM
same,Authentic virus PRNT IC50,[2],0.0448 nM
B12,Pseudo-neutralization IC50 (Luciferase),[1],0.509 nM
same,Authentic virus PRNT IC50,[2],0.766 nM
same,ELISA affinity,[3],0.61 nM
B13,Pseudo-neutralization IC50 (Luciferase),[1],1 nM
same,Authentic virus PRNT IC50,[2],0.78 nM
same,ELISA affinity,[3],0.39 nM
B14,Pseudo-neutralization IC50 (Luciferase),[4],10 nM
same,Authentic virus PRNT IC50,[5],5.11 nM
B15,IC50,SARS-CoV RBD,31.6 nM
same,neutralization of SARS-CoV-2 (assay not stated),[8],< 150 ng/mL
same,Pseudo-neut IC50 Luciferase,[9],10 nM
same,Authentic virus PRNT IC50,[10],5.11 nM
B16,Pseudo-neutralization IC50 (Luciferase),[4],5 nM
same,Authentic virus PRNT IC50,[5],5.1 nM
B17,IC50,SARS-CoV RBD,3.76 nM
same,neutralization of SARS-CoV-2 (assay not stated),[8],< 150 ng/mL
same,Pseudo-neut IC50 Luciferase,[9],5.11 nM
same,Authentic virus PRNT IC50,[10],5.07 nM
